Laboratory results: paper PMC5030135 (Nature chemical biology, 2016)

Target: GDI.Cdc42 FLARE biosensor, wild type (Cdc42 with an N-terminal FRET binding antenna) (UniProt P60953 1-191)
Experiment: FRET or BRET

GDI.Cdc42 FLARE biosensor, wild type (Cdc42 with an N-terminal FRET binding antenna), sequence (P60953 whole entry): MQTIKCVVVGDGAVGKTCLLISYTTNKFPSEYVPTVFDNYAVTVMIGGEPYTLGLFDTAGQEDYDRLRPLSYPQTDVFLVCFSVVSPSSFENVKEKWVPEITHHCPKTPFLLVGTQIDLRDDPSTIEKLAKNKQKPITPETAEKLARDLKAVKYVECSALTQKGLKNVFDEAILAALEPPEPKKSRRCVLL

B1: RhoGDI1 (RhoGDIα), wild type, unlabeled, co-expressed in excess (natural protein)
chain: MAEQEPTAEQLAQIAAENEEDEHSVNYKPPAQKSIQEIQELDKDDESLRKYKEALLGRVAVSADPNVPNVVVTGLTLVCSSAPGPLELDLTGDLESFKKQSFVLKEGVEYRIKISFRVNREIVSGMKYIQHTYRKGVKIDKTDYMVGSYGPRAEEYEFLTPVEEAPKGMLARGSYSIKSRFTDDDKTDHLSWEWNLTIKKDWKD
**Q.** Which “increase in FRET/CFP emission ratio” value does the source give for B1 here?
**A.** 218%
